The target of the test is T1, human KDR-Fc chimeric fusion (R&D Systems #357-KD-05) (human, UniProt P35968 20-764).
T1 chain: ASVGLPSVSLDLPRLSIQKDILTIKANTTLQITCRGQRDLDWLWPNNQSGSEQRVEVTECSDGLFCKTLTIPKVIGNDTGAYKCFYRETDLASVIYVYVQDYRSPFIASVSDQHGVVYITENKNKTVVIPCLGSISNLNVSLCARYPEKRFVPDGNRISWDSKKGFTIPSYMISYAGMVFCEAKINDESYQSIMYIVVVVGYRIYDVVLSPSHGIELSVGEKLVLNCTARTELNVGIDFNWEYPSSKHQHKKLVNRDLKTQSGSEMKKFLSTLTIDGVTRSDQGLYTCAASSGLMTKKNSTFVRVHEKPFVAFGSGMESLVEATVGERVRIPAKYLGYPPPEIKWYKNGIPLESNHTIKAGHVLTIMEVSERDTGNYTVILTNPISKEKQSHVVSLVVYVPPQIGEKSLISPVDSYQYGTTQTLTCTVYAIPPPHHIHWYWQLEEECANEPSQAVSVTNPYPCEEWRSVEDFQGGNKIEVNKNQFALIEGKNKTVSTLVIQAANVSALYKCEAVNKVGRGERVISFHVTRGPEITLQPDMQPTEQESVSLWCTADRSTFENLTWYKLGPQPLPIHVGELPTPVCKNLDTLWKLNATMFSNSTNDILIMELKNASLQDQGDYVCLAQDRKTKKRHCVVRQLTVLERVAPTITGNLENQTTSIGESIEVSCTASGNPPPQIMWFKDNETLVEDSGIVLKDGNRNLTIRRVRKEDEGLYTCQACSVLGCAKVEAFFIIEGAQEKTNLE
Briefly: -; KD, B.
Usually Kd stands for a measure of binding affinity in units of concentration. A higher Kd goes with a looser complex. Take GDSRVCWEDSWGGEVCFGGGK [GDSRVCWEDSWGGEVCFGGGK (SEQ ID NO: 369)]: binding was put at a Kd of 1300 nM. As for VCWEDSWGGEVCFGGGK [VCWEDSWGGEVCFGGGK (SEQ ID NO: 368)], the figure is 910 nM; as for SRVCWEDSWGGEVCFRYGGGGK [SRVCWEDSWGGEVCFRYGGGGK (SEQ ID NO: 371)], 35 nM.

These data come from patent US20100003195A1 (published 2010).
